The target of assay [1] is cynomolgus monkey CD200R1 on cells (cynomolgus monkey). The assay is described as follows: flow cytometry, biotinylated antibody on cynomolgus CD4+ T cells (PBMC), streptavidin-PE; concentration not shown.
Assay [2] has the same target. Description: flow cytometry, biotinylated antibody on cynomolgus CD8+ T cells (PBMC), streptavidin-PE; concentration not shown.
For assay [3], the target named is human CD200R1 on cells (human) (UniProt Q8TD46). Description: cell-based or functional assay.
Assay [4] has the same target. The assay is described as follows: flow cytometry, blocking: U937 cells stably expressing hu-CD200R1 incubated with the antibody, then with 55 nM huCD200-Fc-Flag, detected with anti-Flag PE (MFI).

Sequence of hu-CD200-Fc (Fc fusion) (chain): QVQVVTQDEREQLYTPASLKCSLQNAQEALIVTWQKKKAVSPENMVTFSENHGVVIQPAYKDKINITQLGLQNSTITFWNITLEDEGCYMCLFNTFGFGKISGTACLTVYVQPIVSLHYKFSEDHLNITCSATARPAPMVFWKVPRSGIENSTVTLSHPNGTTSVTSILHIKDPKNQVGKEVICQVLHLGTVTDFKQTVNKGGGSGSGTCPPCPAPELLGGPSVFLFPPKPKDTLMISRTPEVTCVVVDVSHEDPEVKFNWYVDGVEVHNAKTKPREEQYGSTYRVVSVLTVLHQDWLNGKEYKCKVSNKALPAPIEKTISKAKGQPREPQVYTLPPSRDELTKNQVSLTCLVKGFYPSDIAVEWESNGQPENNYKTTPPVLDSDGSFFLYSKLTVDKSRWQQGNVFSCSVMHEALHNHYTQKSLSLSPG

As for IgG Control (antibody), the Mean:Comp-FL2-A in assay [1] was 403; in assay [2] it was 411.

In assay [3], “OX108 (commercial anti-CD200R1 antibody)” registered a pDok2 induction, western blot, U937 cells expressing CD200R1 of 0.033 µM. In addition, the results for the Mean:Comp-FL2-A in assay [1] and in assay [2] were 566 and 425, respectively. Further, in assay [4], the IC50 was found to be 2.8 nM.

In the case of hu-CD200-Fc (Fc fusion), the pDok2 induction, western blot, U937 cells expressing CD200R1 in assay [3] worked out at 0.2 µM.

Source of the values: US20260022171A1.
